Data reported in PMC3192843.
pKd: −log10 of the molar value.

Tested on: nsp16;nsp10 (SARS-CoV strain WHU;SARS-CoV strain WHU)
Experiment: ITC
Details: 5' m7GpppA cap-0

m7GpppA-RNA
pKd: 5.92
